This is an account of results in patent US20030100094A1 (NEW ENGLAND BIOLABS, published 2003).

For assay [1], the target named is T1, BbvCI restriction endonuclease subunit R2 (wild type, 285 aa, 32 kDa) (Bacillus brevis).
T1 construct: Recombinant, co-expressed with the R1 subunit in E. coli; also called BbvCI-R2; subunit 2
T1 chain: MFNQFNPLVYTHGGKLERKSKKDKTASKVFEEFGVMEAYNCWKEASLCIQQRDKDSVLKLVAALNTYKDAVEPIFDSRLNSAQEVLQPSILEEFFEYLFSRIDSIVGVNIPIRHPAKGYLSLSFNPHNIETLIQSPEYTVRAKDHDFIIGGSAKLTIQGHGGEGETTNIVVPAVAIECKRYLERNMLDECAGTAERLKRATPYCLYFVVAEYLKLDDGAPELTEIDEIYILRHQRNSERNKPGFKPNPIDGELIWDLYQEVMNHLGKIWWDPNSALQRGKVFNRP
Nature of the assay: SDS-PAGE of purified enzyme (subunits co-purify). From the text:
(§1) FIG. 9. SDS-PAGE analysis of purified wild type R.BbvCI restriction endonuclease (lanes 2-3: prep. ‘Dan’; lanes 4-6: prep. ‘Diane’), and of purified N.BbvCI nicking endonucleases 2-12 (lanes 7-9), and 1-37 (lanes 10-12). Lane 1 (far left) contains molecular weight markers. All the enzymes preps migrate as two bands of roughly equal intensity signifying that the enzymes are heterodimers with 1:1 subunit stoichiometry.

In assay [2] the target is T2, BbvCI subunit R2 E177G (mutated subunit of nicking enzyme N.BbvCI 2-12) (Bacillus brevis).
T2 construct: The R2 subunit of enzyme mutant 2-12 (R1+:R2E177G), also called Nb.BbvCI; also called ECK->GCK
T2 chain: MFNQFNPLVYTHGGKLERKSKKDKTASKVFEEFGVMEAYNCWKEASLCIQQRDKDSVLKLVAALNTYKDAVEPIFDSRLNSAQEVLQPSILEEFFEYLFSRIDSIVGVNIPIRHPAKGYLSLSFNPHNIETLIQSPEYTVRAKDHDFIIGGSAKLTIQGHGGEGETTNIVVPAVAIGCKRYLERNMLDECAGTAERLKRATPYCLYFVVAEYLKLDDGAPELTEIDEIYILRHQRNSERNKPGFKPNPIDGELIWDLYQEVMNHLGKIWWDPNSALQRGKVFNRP
Nature of the assay: SDS-PAGE of purified enzyme (subunits co-purify).
Text: as §1

B1: BbvCI restriction endonuclease subunit R1 (wild type, 275 aa, 31 kDa) (enzyme)
chain: MINEDFFIYEQLSHKKNLEQKGKNAFDEETEELVRQAKSGYHAFIEGINYDEVTKLDLNSSVAALEDYISIAKEIEKKHKMFNWRSDYAGSIIPEFLYRIVHVATVKAGLKPIFSTRNTIIEISGAAHREGLQIRRKNEDFALGFHEVDVKIASESHRVISLAVACEVKTNIDKNKLNGLDFSAERMKRTYPGSAYFLITETLDFSPDENHSSGLIDEIYVLRKQVRTKNRVQKAPLCPSVFAELLEDILEISYRASNVKGHVYDRLEGGKLIRV
notes: Recombinant, co-expressed with the R2 subunit in E. coli; also called BbvCI-R1; subunit 1
With B1, the binding result in assay [1] and in assay [2] was “binds” each time.

B2: BbvCI subunit R1 E167G (mutated subunit of nicking enzyme N.BbvCI 1-37) (enzyme)
chain: MINEDFFIYEQLSHKKNLEQKGKNAFDEETEELVRQAKSGYHAFIEGINYDEVTKLDLNSSVAALEDYISIAKEIEKKHKMFNWRSDYAGSIIPEFLYRIVHVATVKAGLKPIFSTRNTIIEISGAAHREGLQIRRKNEDFALGFHEVDVKIASESHRVISLAVACGVKTNIDKNKLNGLDFSAERMKRTYPGSAYFLITETLDFSPDENHSSGLIDEIYVLRKQVRTKNRVQKAPLCPSVFAELLEDILEISYRASNVKGHVYDRLEGGKLIRV
notes: The R1 subunit of enzyme mutant 1-37 (R1E167G:R2+), also called Nt.BbvCI; also called EVK->GVK
For the molecule B2, the binding result in assay [1] was “binds”.
